Source: the supplement of paper PMC7877785
± gives the uncertainty stated by the source.

Assay: self-splicing fitness, log relative to wild type (ln ratio); higher = more splicing; Tetrahymena group I intron in knt gene, E. coli kanamycin selection, DiMSum; sequences stand for … in CUCUCU…GGAGGGAAAAGUUAUCAGGCAUGCACCUGGUAGCUAGUCUUUAAACCAAUAGAUUGCAUCGGUUUAAAAGGCAAGACCGUCAAAUUGCGGGAAAGGGGUCAACAGCCGUUCAGUACCAAGUCUCAGGGGAAACUUUGAGAUGGCCUUGCAAAGGGUAUGGUAAUAAGCUGACGGACAUGGUCCUAACCACGCAGCCAAGUCCUAAGUCAACAGAUCUUCUGUUGAUAUGGAUGCAGUUCACAGACUAAAUGUCGGUCGGGGAAGAUGUAUUCUUCUCAUAAGAUAUAGUCGGACCUCUCCUUAAUGGGAGCUAGCGGAUGAAGUGAUGCAACACUGGAGCCGCUGGGAACUAAUUUGUAUGCGAAAGUAUAUUGAUUAGUUUUGGAGUACUCGUGGUCG
In short: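 Colonies from six replicate transformations of E. coli BL21(DE3) were pooled and amplicon-sequenced on an Illumina HiSeq 2500. The library placed an intron with all eight P1ex-region nucleotides randomised inside the knt kanamycin-resistance gene on pET-22b(+), and cells grew overnight at 37°C or 30°C on LB agar with or without 25 μg/mL kanamycin (plus 100 μg/mL carbenicillin, 50 μM IPTG, 0.2% rhamnose). Fitness is the DiMSum error-weighted combination of wild-type-normalised replicate fold changes, kanamycin versus none.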

Sequence | self-splicing fitness (ln) (30 °C) | self-splicing fitness (ln) (37 °C)
GCCUAGCAAUAUUACGCAUG | -4.28 ± 0.36 | -1.67 ± 0.15
GACUAGCAAUAUUACGUUAU | -2.4 ± 0.098 | -1.28 ± 0.11
UAUGAGCAAUAUUACGGGUG | -2.3 ± 0.15 | -1.06 ± 0.16
UCAGAGCAAUAUUACGAGGA | -2.47 ± 0.15 | -1.83 ± 0.16
UCCGAGCAAUAUUACGAGUC |  | -2.16 ± 0.22
UUCUAGCAAUAUUACGAAAA | -1.6 ± 0.14 | -0.631 ± 0.13
UUGAAGCAAUAUUACGCGCG | 0.0526 ± 0.092 | 0.136 ± 0.12
CGCAAGCAAUAUUACGCCCU | -0.736 ± 0.085 | 0.327 ± 0.12
CAAAAGCAAUAUUACGCGUU | -3.91 ± 0.17 | -2.74 ± 0.13
UAGGAGCAAUAUUACGCACU |  | -0.383 ± 0.28
GAUAAGCAAUAUUACGACCA | -1.18 ± 0.14 | -0.0759 ± 0.21
UUGAAGCAAUAUUACGCGAU | -1.96 ± 0.34 | 
CAGUAGCAAUAUUACGAAGA |  | -2.1 ± 0.41
UCGGAGCAAUAUUACGCACG | -3.16 ± 0.34 | -0.819 ± 0.16
CCAGAGCAAUAUUACGUUCC | -4.16 ± 0.31 | -2.6 ± 0.44
UUCGAGCAAUAUUACGGAGC |  | -3.16 ± 0.38
GACAAGCAAUAUUACGGUGG | -2.01 ± 0.066 | -1.88 ± 0.092
CGAAAGCAAUAUUACGUAAC |  | -0.987 ± 0.5
ACCAAGCAAUAUUACGCACU | -0.396 ± 0.07 | 0.498 ± 0.085
CUGAAGCAAUAUUACGCGAU | -0.358 ± 0.071 | 0.0463 ± 0.086
UCUAAGCAAUAUUACGAAAU | -3.53 ± 0.32 | 
AAGCAGCAAUAUUACGUAUC | -3.07 ± 0.1 | -1.62 ± 0.12
GGUUAGCAAUAUUACGCGAA | -0.818 ± 0.25 | -0.0649 ± 0.35
GAGGAGCAAUAUUACGUGUA |  | -3.62 ± 0.35
AUACAGCAAUAUUACGUCGA | -1.77 ± 0.13 | -1.23 ± 0.12

Sequence | self-splicing fitness (ln) (30 °C) | self-splicing fitness (ln) (37 °C)
UCCGAGCAAUAUUACGAUUU | -3.56 ± 0.25 | -2.49 ± 0.44
CACAAGCAAUAUUACGCUGG | -4.18 ± 0.23 | -1.74 ± 0.14
CCUCAGCAAUAUUACGAAUU | -2.53 ± 0.18 | -2.13 ± 0.2
GCGAAGCAAUAUUACGCUUG | -1.45 ± 0.26 | -1.56 ± 0.35
ACCGAGCAAUAUUACGCACG | -3.67 ± 0.31 | -3.29 ± 0.33
AACGAGCAAUAUUACGGUUU | -2.07 ± 0.079 | -0.83 ± 0.089
CUUUAGCAAUAUUACGUGGU | -2.28 ± 0.25 | -2.8 ± 0.26
AAGAAGCAAUAUUACGGGAA | -1.79 ± 0.14 | -1.85 ± 0.13
CGUGAGCAAUAUUACGGAAA | -2.27 ± 0.3 | -1.14 ± 0.27
GAACAGCAAUAUUACGCAGA | -2.1 ± 0.14 | -1.66 ± 0.12
AGCGAGCAAUAUUACGAGUU | -2.61 ± 0.19 | -1.21 ± 0.18
UAUAAGCAAUAUUACGCUAC | -3.61 ± 0.21 | -1.32 ± 0.17
ACAAAGCAAUAUUACGGCAA | -0.0281 ± 0.08 | -0.252 ± 0.1
AGCGAGCAAUAUUACGAGGA | -2.36 ± 0.15 | -2.6 ± 0.22
CAAAAGCAAUAUUACGUAGC | -3.1 ± 0.13 | -2.61 ± 0.24
GGCCAGCAAUAUUACGGUUA | 0.0773 ± 0.069 | -0.541 ± 0.067
AGGCAGCAAUAUUACGCAAA | -1.43 ± 0.15 | -1 ± 0.2
CAACAGCAAUAUUACGAUGA | -1.53 ± 0.12 | -0.678 ± 0.089
GUCGAGCAAUAUUACGUGUC | -2.18 ± 0.08 | -1.6 ± 0.077
ACCCAGCAAUAUUACGUAAU | -0.676 ± 0.035 | 0.426 ± 0.061
AAAUAGCAAUAUUACGCAGC | -3.27 ± 0.33 | -0.974 ± 0.25
AAGGAGCAAUAUUACGAGCA | -2.24 ± 0.45 | -0.592 ± 0.4
AUACAGCAAUAUUACGAAAG | -2.62 ± 0.19 | -0.9 ± 0.17
GUUAAGCAAUAUUACGGUUG | -3.12 ± 0.28 | -1.22 ± 0.24
CUGUAGCAAUAUUACGUUAA | -3.31 ± 0.33 | -1.49 ± 0.23

Sequence | self-splicing fitness (ln) (30 °C) | self-splicing fitness (ln) (37 °C)
CUGCAGCAAUAUUACGACGU | -2.98 ± 0.18 | -2.49 ± 0.29
UAAUAGCAAUAUUACGUGCU | -1.98 ± 0.1 | -0.994 ± 0.1
AAUGAGCAAUAUUACGCGGA | -2.88 ± 0.21 | -2.13 ± 0.21
UCGAAGCAAUAUUACGGGUG | -0.763 ± 0.083 | -0.756 ± 0.097
UGCAAGCAAUAUUACGUUCA | 0.123 ± 0.06 | 0.454 ± 0.088
AUAUAGCAAUAUUACGGAUA | -2.76 ± 0.31 | -1.63 ± 0.3
UCUCAGCAAUAUUACGGAGC | -2.1 ± 0.47 | -2.27 ± 0.47
AUAUAGCAAUAUUACGCUAU | -2.98 ± 0.27 | -0.715 ± 0.24
AGACAGCAAUAUUACGGUCC | -3.24 ± 0.27 | -1.68 ± 0.28
AUGAAGCAAUAUUACGCAGC | -2.75 ± 0.24 | -0.841 ± 0.38
AUAGAGCAAUAUUACGUUUA | -0.804 ± 0.13 | -0.629 ± 0.14
CUGAAGCAAUAUUACGUCUA | -0.846 ± 0.077 | -0.487 ± 0.1
CACCAGCAAUAUUACGAUCU | -4.3 ± 0.23 | -2.43 ± 0.15
CUCCAGCAAUAUUACGCCGA | -2.27 ± 0.42 | 
UGCAAGCAAUAUUACGUUCU | -0.995 ± 0.069 | -0.423 ± 0.084
AAAGAGCAAUAUUACGAUCC |  | -1.6 ± 0.32
UAACAGCAAUAUUACGUCCA | -0.357 ± 0.091 | -0.0151 ± 0.12
AGUGAGCAAUAUUACGGAGG | -3.77 ± 0.28 | -2.67 ± 0.27
AGCGAGCAAUAUUACGUGAU | -2.98 ± 0.21 | -3.09 ± 0.35
GUGAAGCAAUAUUACGGAUG | -0.987 ± 0.07 | -0.586 ± 0.098
AACCAGCAAUAUUACGGCGA | -0.304 ± 0.075 | 0.19 ± 0.11
CCUGAGCAAUAUUACGGUAC | -4.34 ± 0.34 | 
AAACAGCAAUAUUACGAUGA | -1.34 ± 0.067 | -0.0116 ± 0.067
CUGUAGCAAUAUUACGCUUU | -3.83 ± 0.17 | -3.19 ± 0.21
UUGGAGCAAUAUUACGGCGU |  | -2.29 ± 0.35

Sequence | self-splicing fitness (ln) (30 °C) | self-splicing fitness (ln) (37 °C)
UGGUAGCAAUAUUACGUUUG | -1.26 ± 0.07 | -0.669 ± 0.098
CGGGAGCAAUAUUACGAGCA | -3 ± 0.19 | -3.2 ± 0.31
AUACAGCAAUAUUACGCUAA | -1.96 ± 0.12 | -1.01 ± 0.12
UGACAGCAAUAUUACGUCUC | -4.29 ± 0.34 | -1.47 ± 0.22
AGUUAGCAAUAUUACGCUCG | -0.0767 ± 0.16 | -0.636 ± 0.19
CGAGAGCAAUAUUACGGGGA | -3.24 ± 0.47 | -1.74 ± 0.31
AUGGAGCAAUAUUACGCUUG | -1.46 ± 0.12 | -0.294 ± 0.12
CAAUAGCAAUAUUACGAAAG | -1.47 ± 0.082 | -0.294 ± 0.13
UAUUAGCAAUAUUACGUCUC | -2.7 ± 0.35 | -1.5 ± 0.22
AAAUAGCAAUAUUACGGUGU | -2.83 ± 0.13 | -2.05 ± 0.15
UGAAAGCAAUAUUACGUUGU | -4.1 ± 0.22 | -2.04 ± 0.12
CCCUAGCAAUAUUACGGGUA | -2.41 ± 0.14 | -3.01 ± 0.19
CCUAAGCAAUAUUACGGAAG | -2.12 ± 0.11 | -0.751 ± 0.1
UAUUAGCAAUAUUACGUGCA | -0.96 ± 0.16 | -0.986 ± 0.16
ACUCAGCAAUAUUACGUUGA | -2.37 ± 0.15 | -0.607 ± 0.14
CAUCAGCAAUAUUACGGCAC | -3.89 ± 0.24 | -2.56 ± 0.24
GGAAAGCAAUAUUACGAGGU | -3.65 ± 0.17 | -2.87 ± 0.25
GAGGAGCAAUAUUACGACGC | -0.403 ± 0.15 | 0.209 ± 0.14
GUGGAGCAAUAUUACGUGUG | -2.65 ± 0.21 | -2.65 ± 0.23
UGGCAGCAAUAUUACGCGUA | -0.0648 ± 0.084 | -0.33 ± 0.087
AGGUAGCAAUAUUACGUAGG | -3.667 ± 0.026 | -2.71 ± 0.039
CCAGAGCAAUAUUACGAAAA | -2.94 ± 0.32 | -1.54 ± 0.35
UAGUAGCAAUAUUACGAGUC | -4.06 ± 0.33 | -2.03 ± 0.23
UACGAGCAAUAUUACGCUUU | -4.61 ± 0.42 | -2.4 ± 0.22
